Experimental data reported in patent US8557771B2, “Homodimer of insulinotropic peptide analogues and method for preparation thereof and use thereof” (Chongqing Fagen Biomedical Inc., priority 2009, dated 2013).
Bridge positions count the residues as written; N and C are the ends. Ends that are not written are not given here. I, II: the chains in the order shown.

Test system: Balb/c mice
Test: Blood sugar regulation in mice in vivo after intraperitoneal drug and glucose injection
Conditions: 3 hours after administration; 100 μl of 10 nmol/L drug i.p. with 200 μl of 40% glucose; FIG. 5
Experimental: After fasting overnight, mice were intraperitoneally injected respectively with 100 μl of different drugs that were dissolved to 10 nmol/L in a 10 mmol/L sodium phosphate buffer (pH6.5), and meanwhile injected with 200 μl of glucose solution (40%). Blood was sampled at 30, 60, 120, and 180 min after drug administration and blood sugar was assayed (Blood sugar meter, LifeScan, Inc.). Then, 200 μl of glucose solution (40%) was intraperitoneally injected again at 24 hours, 48 hours, 72 hours and 96 hours after drug administration, respectively. Blood was sampled at 30 and 60 min after glucose administration and blood sugar was assayed (Blood sugar meter, LifeScan, Inc.).

B1: Ex4C-Ex4C: Homodimer of Ex4C(NH2) (SEQ ID NO: 3), joined by a disulfide bond between the C-terminal Cys residues (peptide)
chain 1: HGEGTFTSDLSKQMEEEAVRLFIEWLKNGGSGGSC
chain 2: B1 chain 1
modifications: disulfide homodimer, C-terminal amide; Ex4C peptide sequence
blood sugar level: well-regulated

B2: Di-GLP-G8C: Homodimer of GLP-G8C (SEQ ID NO: 4), formed by oxidation at the C-terminal Cys (peptide)
chain 1: HGEGTFTSDVSSYLEGQAAKEFIAWLVKGGGGGSC
chain 2: B2 chain 1
modifications: disulfide I:35-II:35
blood sugar level: well-regulated
